Starred links: 1 amine or outer side, 2 acyl side, 3 side chain; linkers in the order of their positions; H or OH if unused. Positions of bridges follow the written chain, without caps; N, C: chain ends. Non-standard residues stand in square brackets, D forms with d. Chains are numbered I, II in the order given. No end group written: not given here. *: point of attachment. TATA = O=C(CC[*:1])N1CN(C(=O)CC[*:2])CN(C(=O)CC[*:3])C1; Hyp = O=C(O)[C@@H]1C[C@@H](O)CN1; hArg = N=C(N)NCCCC[C@H](N)C(=O)O; tBuAla = CC(C)(C)C[C@H](N)C(=O)O; dK(PYA) = not defined here; NMeA = CN[C@@H](C)C(=O)O; Nle = CCCC[C@H](N)C(=O)O; Pent4ynoyl = C#CCCC(=O)*

For the assay, the target named is CD137 on Jurkat reporter cells (Promega kit CS196005) (UniProt Q07011). The experiment in a line: cell-based or functional assay.
Sequence of CD137 on Jurkat reporter cells (Promega kit CS196005) (Q07011 24-255 limits assumed): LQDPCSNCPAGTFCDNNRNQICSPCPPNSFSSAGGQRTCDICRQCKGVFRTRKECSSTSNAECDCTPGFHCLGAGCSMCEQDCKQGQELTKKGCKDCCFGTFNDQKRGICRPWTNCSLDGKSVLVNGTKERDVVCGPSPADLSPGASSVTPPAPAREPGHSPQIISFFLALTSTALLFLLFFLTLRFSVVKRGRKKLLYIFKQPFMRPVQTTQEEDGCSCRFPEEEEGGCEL

B1: BCY12724 (peptide)
peptide 1: A[hArg]DC[Hyp]LVNPLCLHP[dD]W[hArg]C
peptide 2: Ac-C[tBuAla]PE[dK(PYA)]PYCFADPY[Nle]C
modifications: linker I:4-I:11-I:18, II:1-II:8-II:15 via TATA; not fully specified (bridges); reading uncertain; also: two CD137 bicycles per complex (EphA2:CD137 1:2)
The molecule B1 yielded a Fold Improvement over BCY9173, EC50, PC3 of 1.1 fold and a Fold Improvement over Emax (BCY9173), PC3 of 1.9 fold.

B2: BCY14051 (peptide)
peptide 1: AXDCXLVNPLCLXPDWXC
peptide 2: CXPEXPYCFADPYXCA
modifications: BCY8928: Ac-(SEQ ID NO: 11)-A; TATA; linker at dLys(PYA)4; BCY13919: A[HArg]D-(SEQ ID NO: 158); TATA; linker at N-terminus
B2 had a Fold Improvement over BCY9173, EC50, PC3 of 3.15 fold and a Fold Improvement over Emax (BCY9173), PC3 of 1.88 fold.

B3: BCY12723 (peptide)
peptide 1: A[hArg]DC[Hyp]LVNPLCLHP[dD]W[hArg]C
peptide 2: Ac-C[tBuAla]EE[dK(PYA)]PYCFADPY[Nle]C
modifications: linker I:4-I:11-I:18, II:1-II:8-II:15 via TATA; not fully specified (bridges); reading uncertain; also: two CD137 bicycles per complex (EphA2:CD137 1:2)
Turning to B3, the Fold Improvement over BCY9173, EC50, PC3 came to 2.2 fold and the Fold Improvement over Emax (BCY9173), PC3 came to 1.8 fold.

B4: BCY14052 (peptide)
peptide 1: AXDCXLVNPLCLFPDWXC
peptide 2: CXPEXPYCFADPYXCA
modifications: BCY8928: Ac-(SEQ ID NO: 11)-A; TATA; linker at dLys(PYA)4; BCY13920: A[HArg]D-(SEQ ID NO: 159); TATA; linker at N-terminus
Molecule B4 returned a Fold Improvement over BCY9173, EC50, PC3 of 4.16 fold and a Fold Improvement over Emax (BCY9173), PC3 of 1.89 fold.

B5: heterotandem bicyclic peptide complex BCY12491 (peptide)
peptide 1: A[hArg]DC[Hyp]LVNPLCLHP[dD]W[hArg]C
peptide 2: Ac-C[tBuAla]PE[dK](Pent4ynoyl)PYCFADPY[Nle]CA
modifications: linker I:4-I:11-I:18, II:1-II:8-II:15 via TATA (inferred); also: N-(acid-PEG3)-N-bis(PEG3-azide) linker at chain 1 N-terminus, joined to dLys(PYA)4 of two BCY8928 chains (1:2 complex)
In the case of B5, the Fold Improvement over BCY9173, EC50, PC3 is 2.3 fold and the Fold Improvement over Emax (BCY9173), PC3 amounted to 1.8 fold.

B6: BCY12725 (peptide)
peptide 1: A[hArg]DC[Hyp]LVNPLCLHP[dD]W[hArg]C
peptide 2: Ac-C[tBuAla]PE[dK(PYA)]PYCFANPY[Nle]C
modifications: linker I:4-I:11-I:18, II:1-II:8-II:15 via TATA; not fully specified (bridges); reading uncertain; also: two CD137 bicycles per complex (EphA2:CD137 1:2)
In turn, B6 registered a Fold Improvement over BCY9173, EC50, PC3 of 0.1 fold and a Fold Improvement over Emax (BCY9173), PC3 of 0.7 fold.

B7: BCY13276 (peptide)
peptide 1: [NMeA][hArg]DC[Hyp]LVNPLCLEP[dD]WTC
peptide 2: Ac-C[tBuAla]PE[dK](Pent4ynoyl)PYCFADPY[Nle]CA
modifications: linker I:4-I:11-I:18, II:1-II:8-II:15 via TATA; not fully specified (N-terminus, bridges); also: linker joins chain 1 to two chain 2 copies via PYA triazoles
As for B7, the EC50 (nM), PC3 co-culture was determined as 0.1 nM and the Emax (fold induction over background), PC3 (fold over background) was determined as 50.5.

B8: BCY14050 (peptide)
peptide 1: AXDCXLVNPLCLXPDWXC
peptide 2: CXPEXPYCFADPYXCA
modifications: BCY8928: Ac-(SEQ ID NO: 11)-A; TATA; linker at dLys(PYA)4; BCY13918: A[HArg]D-(SEQ ID NO: 157); TATA; linker at N-terminus
Consider B8, for which the Fold Improvement over BCY9173, EC50, PC3 is 2.05 fold and the Fold Improvement over Emax (BCY9173), PC3 was 1.91 fold.

B9: BCY13279 (peptide)
peptide 1: Ac-C[Hyp]LVNPLCLHP[dD]W[hArg]CL[dH]G[dK]
peptide 2: Ac-C[tBuAla]PE[dK](Pent4ynoyl)PYCFADPY[Nle]CA
modifications: linker I:1-I:8-I:15, II:1-II:8-II:15 via TATA (inferred); also: linker N-(acid-PEG3)-N-bis(PEG3-azide) on C-terminal dK of chain 1, joins two chain 2 copies via PYA triazoles
As to B9, the Fold Improvement over BCY9173, EC50, PC3 was found to be 4.74 fold and the Fold Improvement over Emax (BCY9173), PC3 worked out at 2.08 fold.

These data come from patent publication US20230129258A1, “HETEROTANDEM BICYCLIC PEPTIDE COMPLEXES” (BicycleTx Limited, priority 2019, published 2023).
